The text below walks through data of the DeepSol protein solubility set.

A short description of this data set: soluble on expression in E. coli; label from the status in PepcDB or PDB records.
As to “MSLLKQRFVLDTTALTDLQTREVMGYASLCEGMKAILDLIADARLHFGISCYVPYPSVYKEMYEFASRNGCDREVVAKIDTWLVKKSPDRYRVSVTSQIFHEYVAYMRERINRGMGVAEDAIWEAATECLFMENPQNKKKEYKEEVEREVIGGIIGKFRNKYRAALRYGILDSAPDIDVLILAKELDAAVIASDYGIEKWAEQLGVRFVPANVFPMMIQEYLKHLPENENEPEYENRDKSKEGSSGEIEFIEGHHHHHH”, the “soluble on expression in E. coli” value is “soluble”.
As to “MSMFGKVAADVLGLSDIGSVIQPKDYDKVDADDYVMHEDGEKIYFLIKSKSDEYCFTNRALIHLDGTSAASKKRTLRRYDYYKHPISDVSLETAGTVDLDAEIKFKIGPHSYSIDVHKKHIEELKDLYKSLLAIAEICHENEMKFHYAERSLELATKVFANMRGDGANVSADFQAVNEYAFRWLTEAKKNYTVKDFGFVFDKYIQQ”, the “soluble on expression in E. coli” value is “not soluble”.
For the sequence “MGSDKIHHHHHHMDLASKYFNGVNWRYIDHSSGLEPMQSFAFDDTFCESVGKDISDNVVRTWIHQHTVILGIHDSRLPFLKDGIDYLTNEIGYNAIVRNSGGLGVVLDQGVLNISLMFKGQTETTIDEAFTVMYLLISKMFEDENVDIDTMEIEHSYCPGKFDLSIDGKKFAGISQRRVRGGIAVQIYLCVEGSGSERALMMQTFYEHALKGEVTKFKYPEIEPSCMASLETLLNKTITVQDVMFLLLYAIKDLGGVLNMTPITQEEWQRYDTYFDKMIERNKKMIDQMQ”, the “soluble on expression in E. coli” value is reported as “not soluble”.
To “MGSDKIHHHHHHMTISNQELTLTPLRGKSGKAYIGTYPNGERVFVKYNTTPILPALAKEQIAPQLLWARRTSNGDMMSAQEWLDGRTLTKEDMGSKQIIHILLRLHKSRPLVNQLLQLGYKIENPYDLLMDWEKQTPIQIRENTYLQSIVTELKRSLPEFRTEVATIVHGDIKHSNWVITTSGLIYLVDWDSVRLTDRMYDVAYILSHYIPQKHWKDWLSYYGYKDNEKVWSKIIWYGQFSYLSQIIKCFDKRDMEHVNQEIYELRKFRELIKKHNAS” belongs “not soluble”.
To “MGSDKIHHHHHHMKTVMLMLTSLLMAGCSVLGKREAAEPPYELLKHDGAFEVRRYGPMVIAETILDEKSYSAASGKGFNRLAGYIFGKNRSKTSISMTAPVLQERSSEKISMTAPVLQQPQKGGWSMAFVLPEGFTLQSAPEPLDPEVKLRELPPSTIAVVTFSGLHSAANLEKYSRQLQAWLKKQGYRALSEPKLASYDPPWTIPFLRRNEVQIRIEPDHGESGKE” belongs “not soluble”; to “MLHLIVADSELETIPEEMLDDPGVRRFAKKRNKRVDRMILDSNYMHAFIDKYYPGESKRRGRPDIIYILLEMAQESILNRKNLLRTYIHTRNDFVIKISPITRMPKSYNRFIGLFEDLFEKEIITNNGKTLLSLERMKLDELLESLKKDRTILLHPKGEFKKPSEFISTEDIAAIIGGFSEGDFRSDVSNIPEKYSIFRDELTIWSVGLEIVASYERAIGLLLEHHHHHH”, “not soluble”.
For “MGSDKIHHHHHHMSLPYKRWHYFNLIKNSLQKGCLKQQQTLTATTLKRNTIMTVIKQEDFIQSICDAFQFISYYHPKDYIDALYKAWQKEENPAAKDAMTQILVNSRMCAENNRPICQDTGIATVFLKVGMDVQWDADMSVEEMVNEGVRRAYTWEGNTLRASVLADPAGKRQNTKDNTPAVIHMSIVPGDKVEVTCAAKGGGSENKSKLAMLNPSDNIVDWVLKTIPTMGAGWCPPGILGIGIGGTPEKAVLMAKESLMSHIDIQELQEKAASGAELSTTEALRLELFEKVNALGIGAQGLGGLTTVLDVKILDYPTHAASKPIAMIPNCAATRHVEFELDGSGPVELTPPRVEDWPDLTYSPDNGKRVDVDKLTKEEVASWKTGDVLLLNGKILTGRDAAHKRLVDMLDKGEELPVDFTNRLIYYVGPVDPVGDEIVGPAGPTTATRMDKFTRQMLEQTDLLGMIGKSERGAATCEAIADNKAVYLMAVGGAAYLVAKAIKSSKVLAFPELGMEAIYEFEVKDMPVTVAVDSKGESIHATAPPQWQAKIGIIPVKS” the value was “not soluble”; for “VVVTDMGILAKRSVDGSLDIFVQSLSQGLPIANAKVDVVGRNGLSVAEGFTDLGGHVHLPKLGQLRREKRPLFYRVEKAGDVSFLPIGDWRRELDMSRFDIGGSNESEDPNTLSAYLFTDRGLYRPGETAHVASLVRSQSWGASLDGLPVKMVVTDPRGIDVLDRTFNLDSSGFNSLDFSSTEAAVAGEYTASLSLIRDKHNLTRLGEESFKVRDFEPDRIKVRVTLGATESGTSIGWLKPEEVSAKVQAEQLFGGPAGDRRVTGEMVLSPTDISFKELPGYYFGVQGE”, “not soluble”; for “SKRKARRGAGMPDYETVALVLQGGGALGAYQAGVYEGLHAAGIRPNWLAGISIGGINAAIIAGAPVDERVGRLRGFWEAICRPTGFVGLPWGDAWAALFANAPFGFGSNQSNGQLAAFNALTRGQPGFFEPRFPPPYLVQGGGAAATSFYDTTPLLQTLRDYVDFDLLNRGDVRVSLGAVNVRTGNFAYFDSRETVIRPEHVMASGALPPGFPAIEIDGEFYWDGGLVSNTPLTKVLAVHPMRDTLAFQVDLWPARGPLPTSLEEVAERQKDIQYSSRTRIVTDTFRRQLKLRRSLQRVLDRLPPQVRSSRELAQIRREACTPLVNVVNLIYEANQFERHSKDYEFNTESMREHWRFGLADIERTLAQPGV”, “not soluble”.
Turning to “MKFLPYIFLLCCGLWSTISFADEDYIEYRGISSNNRVTLDPLRLSNKELRWLASKKNLVIAVHKSQTATLLHTDSQQRVRGINADYLNLLKRALNIKLTLREYADHQKAMDALAEGEVDIVLSHLVTSPPLNNDIAATKPLIITFPALVTTLHDSMRPLTSPKPVNIARVANYPPDEVIHQSFPKATIISFTNLYQALASVSAGHNDYFIGSNIITSSMISRYFTHSLNVVKYYNSPRQYNFFLTRKESVILNEVLNRFVDALTNEVRYEVSQNWLDTGNLAFLNKPLELTEHEKQWIKQHPNLKVLENPYSPPYSMTDENGSVRGVMGDILNIITLQTGLNFSPITVSHNIHAGTQLSPGGWDIIPGAIYSEDRENNVLFAEAFITTPYVFVMQKAPDSEQTLKKGMKVAIPYYYELHSQLKEMYPEVEWIQVDNASAAFHKVKEGELDALVATQLNSRYMIDHYYPNELYHFLIPGVPNASLSFAFPRGEPELKDIINKALNAIPPSEVLRLTEKWIKMPNVTIDTWDLYSEQFYIVTTLSVLLVGSSLLWGFYLLRSVRRRKVIQGDLENQISFRKALSDSLPNPTYVVNWQGNVISHNSAFEHYFTADYYKNAMLPLENSDSPFKDVFSNAHEVTAETKENRTIYTQVFEIDNGIEKRCINHWHTLCNLPASDNAVYICGWQDITETRDLINALEVEKNKAIKATVAKSQFLATMSHEIRTPISSIMGFLELLSGSGLSKEQRVEAISLAYATGQSLLGLIGEILDVDKIESGNYQLQPQWVDIPTLVQNTCHSFGAIAASKSIALSCSSTFPEHYLVKIDPQAFKQVLSNLLSNALKFTTEGAVKITTSLGHIDDNHAVIKMTIMDSGSGLSQEEQQQLFKRYSQTSAGRQQTGSGLGLMICKELIKNMQGDLSLESHPGIGTTFTITIPVEISQQVATVEAKAEQPITLPEKLSILIADDHPTNRLLLKRQLNLLGYDVDEATDGVQALHKVSMQHYDLLITDVNMPNMDGFELTRKLREQNSSLPIWGLTANAQANEREKGLSCGMNLCLFKPLTLDVLKTHLSQLHQVAHIAPQYRHLDIEALKNNTANDLQLMQEILMTFQHETHKDLPAAFQALEAGDNRTFHQCIHRIHGAANILNLQKLINISHQLEITPVSDDSKPEILQLLNSVKEHIAELDQEIAVFCQKND”, the “soluble on expression in E. coli” value is recorded as “not soluble”.
To “MVQAEGLTKRYRKAVAVEGLTFGVGPGEVYALLGPNGAGKTTTLRLLSTLVRPSAGRALVAGFDVVREPLEVRRNLGLVNGGMRVYERLTGREVLEFFAGFYGLKGRAFLGALDWVVDLLEMEETLDKKVGEMSTGMRQKVVIARAILHRPKVLLLDEATAGLDIFARRALLDFVKAYRDLGHAVIYSTHVMGEAEEVADRVGFLHRGRLVYEGSKEEALALGEGSLERAFVRQVRGA” belongs “soluble”.
